Test results reported in the supplement of paper PMC10126150.
± gives the standard deviation of the averaged measurements.

test system: ATP; test: switch fluorescence ratio, 500 uM ATP over buffer (Cy3 cluster intensity, sum of 5 cycles each) (fold (ratio)); higher = stronger signal-on switching upon ATP binding; sequences stand for … in TCGTCGGCAGCGTCAGATGTGTATAAGAGACAGTTTTTTTTTTTTTTTTTTTTTTTTT…TC; settings: aptamer strand: ATP DNA aptamer (quencher-CACCTGGGGGAGTATTGCGGAGGAAGG + anchor), 100 nM annealed; ATP concentration: 500 uM
Method in brief: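 The fluorescence ratio divides summed target-cycle Cy3 intensity by summed buffer-cycle Cy3 intensity for each cluster and is averaged per switch-domain sequence. Cy3-labelled switching-strand clusters on a modified Illumina MiSeq flow-cell were annealed to 100 nM quencher-labelled ATP aptamer, then imaged in selection buffer and again after 15 min with 500 uM ATP at 22 °C. Five such cycles were run, with NaOH stripping and re-annealing between them, and clusters outside 100-1000 RFU were excluded.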
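Further: ATP exposure 15 min at 22 °C before imaging.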

Sequence | switch fluorescence ratio
TTATTTTATG | 0.994 ± 0.027
AGATGCTGGT | 0.994 ± 0.015
TAGGGGGGCC | 0.9669 ± 0.0015
CCTCATCTTG | 1.018 ± 0.0048
GCTGGAGTAT | 0.987 ± 0.026
AATTTTTAAA | 0.968 ± 0.038
CAGGTCCAGT | 0.993 ± 0.02
AAGAAATTTG | 0.992 ± 0.015
TAGCTTTGGG | 1 ± 0.011
ATATCAATGG | 1.058 ± 0.0082
CCGGGTGGTT | 1.02 ± 0.08
GGAGCAGGCG | 1.04 ± 0.04
TATGGGAGGT | 1.04 ± 0.029
AAACTGAATA | 1.03 ± 0.016
GTAGGTAACG | 0.9867 ± 0.0079
GTGGGGCGTG | 1 ± 0.03
TCGGTCACCA | 1.05 ± 0.028
TTGGATGGTT | 1.01 ± 0.03
TACGGGCGGA | 1.02 ± 0.034
TGTAGGAGGA | 1.01 ± 0.017
CCATACGTAG | 1.035 ± 0.0066
GTAGGAACCT | 1.8 ± 0.12
GGGCCGGCTG | 1.01 ± 0.036
ACCTTTAGTG | 1.03 ± 0.019
TCCGAGCCTT | 2.08 ± 0.12

Sequence | switch fluorescence ratio
GAATTTGGGA | 0.997 ± 0.013
TAACTGCAGA | 1.01 ± 0.038
GTGTACGGGT | 0.991 ± 0.012
CAGGTACATA | 1.055 ± 0.0086
TTATTGCTCG | 0.989 ± 0.021
ATCGGGGTCC | 1.02 ± 0.019
AATCTTGATG | 0.981 ± 0.03
AGGACCAGGT | 1.02 ± 0.025
ATTGGTTGTT | 1.01 ± 0.036
CCTAGGGTTT | 1 ± 0.038
CGGATGCGTT | 0.981 ± 0.024
GGGTATTGCA | 0.996 ± 0.018
GTTATTTTGT | 0.99 ± 0.019
AGCTTCAGTC | 1 ± 0.03
CGAGGGAGGG | 0.999 ± 0.015
TGGGTAGGGA | 0.9759 ± 0.0093
GCAGCGGCTG | 0.994 ± 0.014
GATAGTTGGT | 1 ± 0.021
CTGAATTAGG | 0.988 ± 0.02
TTTAGGGACA | 1.15 ± 0.1
TATTGTTCTG | 0.9819 ± 0.0025
CGCGTTCGCT | 1.025 ± 0.0083
TTTTTTACGA | 1.04 ± 0.028
CACAGTTACC | 1.242 ± 0.0095
GTTTATGCAC | 1.06 ± 0.084

Sequence | switch fluorescence ratio
AAAACAAGGG | 1.01 ± 0.012
AAAGGGTTTC | 1 ± 0.038
GCGATGGAAT | 1.1282 ± 6e-05
TTTTCGCCGA | 1.03 ± 0.057
ATTATGGGTT | 0.995 ± 0.029
ATGAGTGCTC | 0.98 ± 0.0086
CTTGGTTAGT | 1.03 ± 0.056
ATGGGGTGGG | 0.985 ± 0.026
TTGATCTAAT | 1 ± 0.011
CCTAGGGGGT | 1.02 ± 0.029
CTAAGGATGC | 1.03 ± 0.021
CAATAAAGGT | 1.08 ± 0.18
AGGCCATTGG | 1.04 ± 0.024
GATAATAGTG | 1.08 ± 0.073
CTGGGTCGGC | 0.965 ± 0.04
CAGATACAAG | 1.036 ± 0.0095
GTTTTTGGAC | 0.982 ± 0.029
GGGTAGGGGT | 1.02 ± 0.074
CGGGGAAAGT | 0.996 ± 0.015
CACTAGAGGT | 1.03 ± 0.06
GAATGAGCGT | 0.9799 ± 0.003
TATTTATATT | 1.06 ± 0.029
GGCAGGCCAT | 1.059 ± 0.0074
CATTGTATCG | 1.01 ± 0.011
ATTTCGAGTT | 0.972 ± 0.014

Sequence | switch fluorescence ratio
AAAATTAAGC | 1.01 ± 0.051
GCGTCAGGAT | 1.0442 ± 0.00058
ATATTTGCGT | 0.974 ± 0.021
CCAGTTAAGA | 0.989 ± 0.024
ATCATTAATG | 1.01 ± 0.014
GTTTGTGCGG | 0.9811 ± 0.0084
CGCGACTTAA | 1.044 ± 0.0047
ATAGATTGCC | 0.993 ± 0.022
TGGGTGGGTC | 1.05 ± 0.069
GGGAGTATTT | 1 ± 0.034
TTACTTTTGT | 1.021 ± 0.0039
TTATTACT | 0.981 ± 0.011
CTGCAGCGTC | 1.29 ± 0.053
TGGGCTCGCC | 1 ± 0.025
GGGTGTGCGG | 0.972 ± 0.038
AGCGGGGGCT | 0.997 ± 0.045
ATCACGTCTA | 1.024 ± 0.003
AAACTGTATT | 1.08 ± 0.019
ACGTAGAAAT | 1.35 ± 0.022
TTCCTTGGAG | 1.01 ± 0.047
AATCGGGTGC | 1.05 ± 0.054
TTTGTAGGCG | 0.983 ± 0.13
GGGGTCCGGT | 1.06 ± 0.14
TCGCCGCTTT | 1.76 ± 0.11
CGTTCTGTTT | 1 ± 0.029
